Reference: patent US20240132624A1

Experiments:
human FcRn/b2M (human) [1] = biological target: human FcRn/b2M (human) (UniProt P61769); assay: SPR pH 6.0
human FcRn/b2M (human) [2] = biological target: human FcRn/b2M (human) (UniProt P61769); assay: SPR pH 7.4
human FcRn/b2M (human) [3] = biological target: human FcRn/b2M (human) (UniProt P61769); assay: SPR; pH 7.4 vs pH 6.0

Chain of human FcRn/b2M (human) (chain, as listed by the source limits assumed, chain 1 of 2): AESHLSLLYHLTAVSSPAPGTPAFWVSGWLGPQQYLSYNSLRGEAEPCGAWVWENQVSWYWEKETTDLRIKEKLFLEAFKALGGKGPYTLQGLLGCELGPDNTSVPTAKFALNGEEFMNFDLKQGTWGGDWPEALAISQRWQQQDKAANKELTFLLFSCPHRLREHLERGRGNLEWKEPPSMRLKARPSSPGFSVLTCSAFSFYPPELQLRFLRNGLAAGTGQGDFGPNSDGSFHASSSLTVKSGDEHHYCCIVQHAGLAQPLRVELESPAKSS
Chain of human FcRn/b2M (human) (P61769 21-119 limits assumed, chain 2 of 2): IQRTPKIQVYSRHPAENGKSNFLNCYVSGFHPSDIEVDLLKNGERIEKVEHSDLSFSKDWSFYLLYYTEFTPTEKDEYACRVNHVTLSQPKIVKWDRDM

B1: T0263018B11 bivalent (VHH, part only; not given: linker, not shown: small tags and cut ends)
chain, part: EVQLVESGGGVVQPGGSLRLSCAASGFTFSSYAMYWVRQAPGKGLEWVSAISSGGGSTDYADSVKGRFTISRDNSKNTLYLQMNSLRPEDTALYYCAADTLYTSLTWYSYWGQGTLVTVSSEVQLVESGGGVVQPGGSLRLSCAASGFTFSSYAMYWVRQAPGKGLEWVSAISSGGGSTDYADSVKGRFTISRDNSKNTLYLQMNSLRPEDTALYYCAADTLYTSLTWYSYWGQGTLVTVSS
Kd (human FcRn/b2M (human) [1]): 19 nM
Kd (human FcRn/b2M (human) [2]): 1000 nM
KD ratio pH 7.4/6.0 (human FcRn/b2M (human) [3]): 54
